Laboratory results: patent publication US20250000946A1 (WUXI BIOLOGICS IRELAND, published 2025)
Where two headings read alike, the source gives them in different places.

Assays:
[1] = molecular target: T1, Human IL-2Rα/β/γ complex (high affinity IL-2 receptor) (human, UniProt P01589 22-272; P14784 27-551; P31785 23-369); experiment: FACS, MJ20 cells
T1 construct: whole, on cells
T1 sequence (looked up) 1: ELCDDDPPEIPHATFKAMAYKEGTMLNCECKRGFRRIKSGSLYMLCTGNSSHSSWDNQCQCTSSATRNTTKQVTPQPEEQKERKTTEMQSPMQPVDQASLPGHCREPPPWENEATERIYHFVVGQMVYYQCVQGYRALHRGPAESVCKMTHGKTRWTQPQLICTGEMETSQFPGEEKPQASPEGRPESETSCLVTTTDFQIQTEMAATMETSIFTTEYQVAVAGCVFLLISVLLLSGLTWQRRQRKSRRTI
T1 sequence (looked up) 2: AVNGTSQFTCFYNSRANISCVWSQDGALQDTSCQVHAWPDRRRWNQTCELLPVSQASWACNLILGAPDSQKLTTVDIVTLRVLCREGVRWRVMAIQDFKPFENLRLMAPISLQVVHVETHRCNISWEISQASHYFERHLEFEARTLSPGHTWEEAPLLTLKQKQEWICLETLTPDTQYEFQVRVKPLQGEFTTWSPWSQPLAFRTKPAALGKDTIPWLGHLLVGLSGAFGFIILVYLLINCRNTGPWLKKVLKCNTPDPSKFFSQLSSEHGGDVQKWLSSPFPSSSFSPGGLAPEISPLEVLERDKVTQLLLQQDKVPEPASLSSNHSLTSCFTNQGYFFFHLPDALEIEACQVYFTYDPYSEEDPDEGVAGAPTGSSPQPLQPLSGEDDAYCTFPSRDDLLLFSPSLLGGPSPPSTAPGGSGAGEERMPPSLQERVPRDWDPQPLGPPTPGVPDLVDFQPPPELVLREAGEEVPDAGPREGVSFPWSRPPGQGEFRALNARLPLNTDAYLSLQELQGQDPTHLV
T1 sequence (looked up) 3: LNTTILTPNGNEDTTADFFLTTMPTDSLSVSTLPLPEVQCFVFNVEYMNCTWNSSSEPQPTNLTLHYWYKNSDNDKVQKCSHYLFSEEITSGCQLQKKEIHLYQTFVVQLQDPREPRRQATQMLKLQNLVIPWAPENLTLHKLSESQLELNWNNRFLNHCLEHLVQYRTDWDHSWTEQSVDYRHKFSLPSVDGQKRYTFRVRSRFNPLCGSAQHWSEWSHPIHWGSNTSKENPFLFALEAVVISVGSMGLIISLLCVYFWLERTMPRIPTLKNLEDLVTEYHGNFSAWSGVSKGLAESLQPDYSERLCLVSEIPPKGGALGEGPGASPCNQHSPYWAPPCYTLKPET
Experimental: (§1) Human cutaneous T cell lymphoma HH cells, malignant non-Hodgkin's lymphoma NK92 cells and cutaneous T cell lymphoma MJ20 cells were used for binding assay. They both constitutively express IL-2Rβ (CD122) and […] (CD132), and NK92 and MJ20 also expresses IL-2Rα (CD25). HH, NK92 and MJ20 cells were cultured following ATCC guidance, then transferred to a 96-plate for binding analysis. Cells were incubated with IL-2/Fc fusion proteins at the indicated concentrations for 30 min at 4° C. to avoid internalization. Binding was detected by 2nd antibody of PE-anti-human Fc at 4° C. for another 30 min. The median fluorescence intensity (MFI) on HH and NK92 cells was measured using FACS.
(§2) Affinity of IL-2 variants to IL-2Rα/β/γ supported the same results (FIG. 8 and Table 7). […] And T2U0.E44-26, T2U0.E44-27, T2U0.E44-29 and T2U0.E44-30 induced hundreds to thousands affinity reduction in Treg compared to T2U0.E44-1. Binding curves in MJ20 cells (IL-2Rα/β/γ) also achieved similar trend (FIG. 8b). As a result, the method of C-terminal truncation and substitution of 129 was available to achieve IL-2Rβγ attenuated IL-2 variants.

[2] = molecular target: T2, Human IL-2Rβ/γ (intermediate affinity IL-2 receptor) (human, UniProt P14784 27-551; P31785 23-369); experiment: cell-based or functional assay
T2 sequence (looked up) 1: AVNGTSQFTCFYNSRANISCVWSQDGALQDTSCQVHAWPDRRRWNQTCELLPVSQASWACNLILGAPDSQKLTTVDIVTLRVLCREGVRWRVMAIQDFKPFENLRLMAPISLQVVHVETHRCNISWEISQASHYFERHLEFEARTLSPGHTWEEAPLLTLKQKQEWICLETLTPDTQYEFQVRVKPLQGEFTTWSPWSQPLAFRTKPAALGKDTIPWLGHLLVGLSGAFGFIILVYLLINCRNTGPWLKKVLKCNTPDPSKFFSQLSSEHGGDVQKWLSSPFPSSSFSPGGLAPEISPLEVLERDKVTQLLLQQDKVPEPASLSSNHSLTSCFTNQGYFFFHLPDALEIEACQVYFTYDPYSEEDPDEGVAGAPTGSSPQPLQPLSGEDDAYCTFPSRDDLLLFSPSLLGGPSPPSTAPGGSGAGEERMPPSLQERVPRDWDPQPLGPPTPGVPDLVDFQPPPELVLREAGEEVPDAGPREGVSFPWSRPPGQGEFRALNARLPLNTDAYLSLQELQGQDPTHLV
T2 sequence (looked up) 2: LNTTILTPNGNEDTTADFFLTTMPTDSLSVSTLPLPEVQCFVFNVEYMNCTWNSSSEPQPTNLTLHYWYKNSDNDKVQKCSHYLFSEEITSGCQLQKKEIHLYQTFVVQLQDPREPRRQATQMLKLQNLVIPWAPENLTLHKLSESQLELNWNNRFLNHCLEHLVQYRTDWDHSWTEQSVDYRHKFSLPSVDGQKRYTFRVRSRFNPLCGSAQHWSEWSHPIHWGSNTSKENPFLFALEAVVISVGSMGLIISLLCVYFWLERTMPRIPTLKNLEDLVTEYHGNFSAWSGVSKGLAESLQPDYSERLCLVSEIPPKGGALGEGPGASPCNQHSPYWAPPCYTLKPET

[3] = molecular target: T1, Human IL-2Rα/β/γ complex (high affinity …); experiment: cell-based or functional assay
[4] = molecular target: T1, Human IL-2Rα/β/γ complex (high affinity …); experiment: FACS, MJ20 cells; EC50 fold vs T2U0.E44-1
Experimental: as §1, §2

[5] = molecular target: T2, Human IL-2Rβ/γ (intermediate affinity …); experiment: cell-based or functional assay; remark: listed apart in the source
[6] = molecular target: T1, Human IL-2Rα/β/γ complex (high affinity …); experiment: cell-based or functional assay; remark: listed apart in the source
[7] = molecular target: T2, Human IL-2Rβ/γ (intermediate affinity …); experiment: FACS, HH cells; EC50 fold vs T2U0.E44-1
Experimental: as §1

[8] = molecular target: T2, Human IL-2Rβ/γ (intermediate affinity …); experiment: FACS, HH cells
Experimental: as §1

[9] = molecular target: T1, Human IL-2Rα/β/γ complex (high affinity …); experiment: FACS, NK92 cells; EC50 fold vs T2U0.E44-1
Experimental: as §1

[10] = molecular target: T1, Human IL-2Rα/β/γ complex (high affinity …); experiment: FACS, NK92 cells
Experimental: as §1

[11] = molecular target: T2, Human IL-2Rβ/γ (intermediate affinity …); experiment: FACS, HH cells; EC50 fold vs T2U0.E44-1; remark: listed apart in the source
Experimental: as §1

[12] = molecular target: T2, Human IL-2Rβ/γ (intermediate affinity …); experiment: FACS, HH cells; remark: listed apart in the source
Experimental: as §1

EC50 [1]: 56.6 nM
Potency in human CD8+ T EC50 [2]: 360 nM
Potency reduction (CD8+ T) [2]: 18 fold
Potency in human Treg EC50 [3]: 0.032 nM
Potency reduction (Treg) [3]: 12.6 fold
Affinity reduction [4]: 4 fold
Potency in human CD8+ T EC50 [5]: 175 nM
Potency reduction (CD8+ T) [5]: 18.3 fold
Potency in human Treg EC50 [6]: 1.51 nM
Potency reduction (Treg) [6]: 58.4 fold
Affinity reduction [7]: 9.9 fold
EC50 [8]: 437 nM
Affinity reduction [9]: 2.48 fold
EC50 [10]: 13.7 nM
Affinity reduction [11]: 14.1 fold
EC50 [12]: 533 nM
B1: W3XX115-T2U0.E44-6.uIgG4V1 (Fc fusion)
chain: APTSSSTKKTQLQLEHLLLDLQMILNGINNYKNPKLTRMLTFKFYMPKKATELKHLQCLEEELKPLEEVLNLAQSKNFHLRPRDLISNINVIVLELKGSETTFMCEYADETATIVEFLNRWITFCQSIIESKYGPPCPPCPAPEFLGGPSVFLFPPKPKDTLMISRTPEVTCVVVDVSQEDPEVQFNWYVDGVEVHNAKTKPREEQFNSTYRVVSVLTVLHQDWLNGKEYKCKVSNKGLPSSIEKTISKAKGQPREPQVYTLPPCQEEMTKNQVSLWCLVKGFYPSDIAVEWESNGQPENNYKTTPPVLDSDGSFFLYSRLTVDKSRWQEGNVFSCSVMHEALHNHYTQKSLSLSLG
heavy: EIQLQQSGPELVKPGASVKVSCKASGYSFTDYNMYWVKQSHGESLEWIGYIDPYNGGTRYNQKFKGKATLTVDKSSSTAFMHLNSLTSEDSAVYYCARNGHWDGAWFAYWGQGTLVTVSAASTKGPSVFPLAPCSRSTSESTAALGCLVKDYFPEPVTVSWNSGALTSGVHTFPAVLQSSGLYSLSSVVTVPSSSLGTKTYTCNVDHKPSNTKVDKRVESKYGPPCPPCPAPEFLGGPSVFLFPPKPKDTLMISRTPEVTCVVVDVSQEDPEVQFNWYVDGVEVHNAKTKPREEQFNSTYRVVSVLTVLHQDWLNGKEYKCKVSNKGLPSSIEKTISKAKGQPREPQVCTLPPSQEEMTKNQVSLSCAVKGFYPSDIAVEWESNGQPENNYKTTPPVLDSDGSFFLVSRLTVDKSRWQEGNVFSCSVMHEALHNHYTQKSLSLSLG
light: DIQMNQSPSSLSASLGDTITITCHASQNINVWLSWYQQKPGNIPKLLIYKASNLHTGVPSRFSGSRSGTGFTLTISSLQPEDIATYYCHQGQSYPFTFGSGTKLEIKRTVAAPSVFIFPPSDEQLKSGTASVVCLLNNFYPREAKVQWKVDNALQSGNSQESVTEQDSKDSTYSLSSTLTLSKADYEKHKVYACEVTHQGLSSPVTKSFNRGEC
notes: IL-2 with C-terminal 4 aa (STLT) deleted; E44 format, IgG4
